# Molecular target: T1, IFITM3-wt fused to SCFP or SYFP (interferon-induced transmembrane protein 3) (UniProt Q01628 1-133)
# T1 construct: interferon-induced transmembrane protein 3 (IFITM3), wild type; One molecule stands for both FRET copies (SCFP3A fusion and SYFP2 fusion); also called SxFP-IFITM3; IFTIM3; source: 293T, transiently transfected, in cells; not shown: SCFP3A or SYFP2, N-terminal, kept
# Experiment: FRET or BRET; FACS-FRET in 293T cells at 48 h post transfection with titrated amounts of plasmids, total DNA kept constant with empty pCAGGS (Figure 2D)
# Conditions: partners not purified
# T1 sequence (Q01628 whole entry, the tested form may be a part): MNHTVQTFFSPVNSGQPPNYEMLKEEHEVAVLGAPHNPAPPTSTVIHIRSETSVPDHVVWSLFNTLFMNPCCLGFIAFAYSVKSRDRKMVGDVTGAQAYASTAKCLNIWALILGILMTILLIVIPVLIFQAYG
binder,measurement,value
"IFITM1 fused to SCFP or SYFP (interferon-induced transmembrane protein 1) (natural protein, UniProt P13164 1-125, looked up, interferon-induced transmembrane protein 1 (IFITM1); One molecule stands for both FRET copies: one carries SCFP3A (donor), the other SYFP2 (acceptor); also called SCFP3A-IFITM1; SYFP2-IFITM1; source: 293T, transiently transfected, in cells; not shown: SCFP3A or SYFP2, N-terminal, kept) MHKEEHEVAVLGPPPSTILPRSTVINIHSETSVPDHVVWSLFNTLFLNWCCLGFIAFAYSVKSRDRKMVGDVTGAQAYASTAKCLNIWALILGILMTIGFILLLVFGSVTVYHIMLQIIQEKRGY",percent of FRET-positive cells,~20%
